According to US20240279278A1, “NMU RECEPTOR 2 AGONISTS” (Boehringer Ingelheim International GmbH, priority 2023, published 2024):

T1: human neuromedin U receptor 1 (human, UniProt Q9HB89 24-426)
T1 sequence (looked up): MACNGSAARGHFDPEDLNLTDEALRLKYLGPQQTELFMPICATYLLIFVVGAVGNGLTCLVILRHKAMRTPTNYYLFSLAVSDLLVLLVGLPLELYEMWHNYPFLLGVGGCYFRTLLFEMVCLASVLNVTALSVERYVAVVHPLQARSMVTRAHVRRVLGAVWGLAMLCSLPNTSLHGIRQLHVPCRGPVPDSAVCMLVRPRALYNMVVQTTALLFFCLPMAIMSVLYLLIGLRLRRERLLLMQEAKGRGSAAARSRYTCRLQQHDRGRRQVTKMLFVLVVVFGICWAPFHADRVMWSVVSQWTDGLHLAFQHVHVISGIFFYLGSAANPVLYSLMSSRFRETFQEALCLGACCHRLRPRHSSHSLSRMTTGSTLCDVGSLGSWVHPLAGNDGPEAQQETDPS


Target: T1, human neuromedin U receptor 1
Test: cell-based or functional assay

EC50 (hNMUR1) buffer [nM] | Binder
220 | EEEEXXXXXXXXXXXXXYFLXRPRG (HELM PEPTIDE1{[O=C(O)CCCCCCCCCCCCCCCCC(=O)[*:2]].[gGlu].[gGlu].[gGlu].[gGlu].[Sar].[Sar].[Sar].[Sar].[Sar].[Sar].[Sar].[Sar].[Sar].[Sar].[Sar].[Sar].[O=C(CN1CCN(CCN[*:1])CC1)[*:2]].Y.F.[meL].[Nle].R.P.R.G.[am]}$$$$V2.0; SMILES CCCC[C@H](NC(=O)[C@H](CC(C)C)N(C)C(=O)[C@H](Cc1ccccc1)NC(=O)[C@H](Cc1ccc(O)cc1)NC(=O)CN1CCN(CCNC(=O)CN(C)C(=O)CN(C)C(=O)CN(C)C(=O)CN(C)C(=O)CN(C)C(=O)CN(C)C(=O)CN(C)C(=O)CN(C)C(=O)CN(C)C(=O)CN(C)C(=O)CN(C)C(=O)CN(C)C(=O)CC[C@H](NC(=O)CC[C@H](NC(=O)CC[C@H](NC(=O)CC[C@H](NC(=O)CCCCCCCCCCCCCCCCC(=O)O)C(=O)O)C(=O)O)C(=O)O)C(=O)O)CC1)C(=O)N[C@@H](CCCNC(=N)N)C(=O)N1CCC[C@H]1C(=O)N[C@@H](CCCNC(=N)N)C(=O)NCC(N)=O) [C18DA-gGlu4-Sar12-AEPipAc-Tyr-Phe-NMeLeu-Nle-Arg-Pro-Arg-Gly-NH2]
> 1000 | EEEXXXXXXXXXXXXXXXXYFLXXARG (HELM PEPTIDE1{[O=C(O)CCCCCCCCCCCCCCCCC(=O)[*:2]].[gGlu].[gGlu].[gGlu].[Sar].[Sar].[Sar].[Sar].[Sar].[Sar].[Sar].[Sar].[Sar].[Sar].[Sar].[Sar].[Sar].[Sar].[Sar].[O=C(CN1CCN([*:1])CC1)[*:2]].Y.F.[meL].[Nle].[Dab].[meA].R.G.[am]}$$$$V2.0; SMILES CCCC[C@H](NC(=O)[C@H](CC(C)C)N(C)C(=O)[C@H](Cc1ccccc1)NC(=O)[C@H](Cc1ccc(O)cc1)NC(=O)CN1CCN(C(=O)CN(C)C(=O)CN(C)C(=O)CN(C)C(=O)CN(C)C(=O)CN(C)C(=O)CN(C)C(=O)CN(C)C(=O)CN(C)C(=O)CN(C)C(=O)CN(C)C(=O)CN(C)C(=O)CN(C)C(=O)CN(C)C(=O)CN(C)C(=O)CN(C)C(=O)CC[C@H](NC(=O)CC[C@H](NC(=O)CC[C@H](NC(=O)CCCCCCCCCCCCCCCCC(=O)O)C(=O)O)C(=O)O)C(=O)O)CC1)C(=O)N[C@@H](CCN)C(=O)N(C)[C@@H](C)C(=O)N[C@@H](CCCNC(=N)N)C(=O)NCC(N)=O) [C18DA-gGlu3-Sar15-PipAc-Tyr-Phe-NMeLeu-Nle-Dbu-NMeAla-Arg-Gly-NH2]
1400 | EEEEXXXXXXXXXXXXXXXXYFLXXARG (HELM PEPTIDE1{[O=C(O)CCCCCCCCCCCCCCCCCCC(=O)[*:2]].[gGlu].[gGlu].[gGlu].[gGlu].[Sar].[Sar].[Sar].[Sar].[Sar].[Sar].[Sar].[Sar].[Sar].[Sar].[Sar].[Sar].[Sar].[Sar].[Sar].[O=C(CN1CCN(CCN[*:1])CC1)[*:2]].Y.F.[meL].[Nle].[Orn].[meA].R.G.[am]}$$$$V2.0; SMILES CCCC[C@H](NC(=O)[C@H](CC(C)C)N(C)C(=O)[C@H](Cc1ccccc1)NC(=O)[C@H](Cc1ccc(O)cc1)NC(=O)CN1CCN(CCNC(=O)CN(C)C(=O)CN(C)C(=O)CN(C)C(=O)CN(C)C(=O)CN(C)C(=O)CN(C)C(=O)CN(C)C(=O)CN(C)C(=O)CN(C)C(=O)CN(C)C(=O)CN(C)C(=O)CN(C)C(=O)CN(C)C(=O)CN(C)C(=O)CN(C)C(=O)CC[C@H](NC(=O)CC[C@H](NC(=O)CC[C@H](NC(=O)CC[C@H](NC(=O)CCCCCCCCCCCCCCCCCCC(=O)O)C(=O)O)C(=O)O)C(=O)O)C(=O)O)CC1)C(=O)N[C@@H](CCCN)C(=O)N(C)[C@@H](C)C(=O)N[C@@H](CCCNC(=N)N)C(=O)NCC(N)=O) [C20DA-gGlu4-Sar15-AEPipAc-Tyr-Phe-NMeLeu-Nle-Orn-NMeAla-Arg-Gly-NH2]
72 | EEEXXXXXXXXXXXXXYFLXRPRG (HELM PEPTIDE1{[O=C(O)CCCCCCCCCCCCCCCCCCC(=O)[*:2]].[gGlu].[gGlu].[gGlu].[Sar].[Sar].[Sar].[Sar].[Sar].[Sar].[Sar].[Sar].[Sar].[Sar].[Sar].[Sar].[O=C(CN1CCN([*:1])CC1)[*:2]].Y.F.[meL].[Nle].R.P.R.G.[am]}$$$$V2.0; SMILES CCCC[C@H](NC(=O)[C@H](CC(C)C)N(C)C(=O)[C@H](Cc1ccccc1)NC(=O)[C@H](Cc1ccc(O)cc1)NC(=O)CN1CCN(C(=O)CN(C)C(=O)CN(C)C(=O)CN(C)C(=O)CN(C)C(=O)CN(C)C(=O)CN(C)C(=O)CN(C)C(=O)CN(C)C(=O)CN(C)C(=O)CN(C)C(=O)CN(C)C(=O)CN(C)C(=O)CC[C@H](NC(=O)CC[C@H](NC(=O)CC[C@H](NC(=O)CCCCCCCCCCCCCCCCCCC(=O)O)C(=O)O)C(=O)O)C(=O)O)CC1)C(=O)N[C@@H](CCCNC(=N)N)C(=O)N1CCC[C@H]1C(=O)N[C@@H](CCCNC(=N)N)C(=O)NCC(N)=O) [C20DA-gGlu3-Sar12-PipAc-Tyr-Phe-NMeLeu-Nle-Arg-Pro-Arg-Gly-NH2]
470 | EEEXXXXXXXXXXXXXXXXYFLXXPRG (HELM PEPTIDE1{[O=C(O)CCCCCCCCCCCCCCCCCCC(=O)[*:2]].[gGlu].[gGlu].[gGlu].[Sar].[Sar].[Sar].[Sar].[Sar].[Sar].[Sar].[Sar].[Sar].[Sar].[Sar].[Sar].[Sar].[Sar].[Sar].[O=C(CN1CCN([*:1])CC1)[*:2]].Y.F.[meL].[Nle].[Orn].P.R.G.[am]}$$$$V2.0; SMILES CCCC[C@H](NC(=O)[C@H](CC(C)C)N(C)C(=O)[C@H](Cc1ccccc1)NC(=O)[C@H](Cc1ccc(O)cc1)NC(=O)CN1CCN(C(=O)CN(C)C(=O)CN(C)C(=O)CN(C)C(=O)CN(C)C(=O)CN(C)C(=O)CN(C)C(=O)CN(C)C(=O)CN(C)C(=O)CN(C)C(=O)CN(C)C(=O)CN(C)C(=O)CN(C)C(=O)CN(C)C(=O)CN(C)C(=O)CN(C)C(=O)CC[C@H](NC(=O)CC[C@H](NC(=O)CC[C@H](NC(=O)CCCCCCCCCCCCCCCCCCC(=O)O)C(=O)O)C(=O)O)C(=O)O)CC1)C(=O)N[C@@H](CCCN)C(=O)N1CCC[C@H]1C(=O)N[C@@H](CCCNC(=N)N)C(=O)NCC(N)=O) [C20DA-gGlu3-Sar15-PipAc-Tyr-Phe-NMeLeu-Nle-Orn-Pro-Arg-Gly-NH2]
110 | EEEXXXXXXXXXXXXXYFLXRPRG (HELM PEPTIDE1{[O=C(O)CCCCCCCCCCCCCCCCC(=O)[*:2]].[gGlu].[gGlu].[gGlu].[Sar].[Sar].[Sar].[Sar].[Sar].[Sar].[Sar].[Sar].[Sar].[Sar].[Sar].[Sar].[O=C(CN1CCN([*:1])CC1)[*:2]].Y.F.[meL].[Nle].R.P.R.G.[am]}$$$$V2.0; SMILES CCCC[C@H](NC(=O)[C@H](CC(C)C)N(C)C(=O)[C@H](Cc1ccccc1)NC(=O)[C@H](Cc1ccc(O)cc1)NC(=O)CN1CCN(C(=O)CN(C)C(=O)CN(C)C(=O)CN(C)C(=O)CN(C)C(=O)CN(C)C(=O)CN(C)C(=O)CN(C)C(=O)CN(C)C(=O)CN(C)C(=O)CN(C)C(=O)CN(C)C(=O)CN(C)C(=O)CC[C@H](NC(=O)CC[C@H](NC(=O)CC[C@H](NC(=O)CCCCCCCCCCCCCCCCC(=O)O)C(=O)O)C(=O)O)C(=O)O)CC1)C(=O)N[C@@H](CCCNC(=N)N)C(=O)N1CCC[C@H]1C(=O)N[C@@H](CCCNC(=N)N)C(=O)NCC(N)=O) [C18DA-gGlu3-Sar12-PipAc-Tyr-Phe-NMeLeu-Nle-Arg-Pro-Arg-Gly-NH2]
860 | EEEEXXXXXXXXXXXXXYFLXXPRG (HELM PEPTIDE1{[O=C(O)CCCCCCCCCCCCCCCCCCC(=O)[*:2]].[gGlu].[gGlu].[gGlu].[gGlu].[Sar].[Sar].[Sar].[Sar].[Sar].[Sar].[Sar].[Sar].[Sar].[Sar].[Sar].[Sar].[O=C(CN1CCN(CCN[*:1])CC1)[*:2]].Y.F.[meL].[Nle].[Dab].P.R.G.[am]}$$$$V2.0; SMILES CCCC[C@H](NC(=O)[C@H](CC(C)C)N(C)C(=O)[C@H](Cc1ccccc1)NC(=O)[C@H](Cc1ccc(O)cc1)NC(=O)CN1CCN(CCNC(=O)CN(C)C(=O)CN(C)C(=O)CN(C)C(=O)CN(C)C(=O)CN(C)C(=O)CN(C)C(=O)CN(C)C(=O)CN(C)C(=O)CN(C)C(=O)CN(C)C(=O)CN(C)C(=O)CN(C)C(=O)CC[C@H](NC(=O)CC[C@H](NC(=O)CC[C@H](NC(=O)CC[C@H](NC(=O)CCCCCCCCCCCCCCCCCCC(=O)O)C(=O)O)C(=O)O)C(=O)O)C(=O)O)CC1)C(=O)N[C@@H](CCN)C(=O)N1CCC[C@H]1C(=O)N[C@@H](CCCNC(=N)N)C(=O)NCC(N)=O) [C20DA-gGlu4-Sar12-AEPipAc-Tyr-Phe-NMeLeu-Nle-Dbu-Pro-Arg-Gly-NH2]
1200 | EEEEXXXXXXXXXXXXXYFLXXARG (HELM PEPTIDE1{[O=C(O)CCCCCCCCCCCCCCCCCCC(=O)[*:2]].[gGlu].[gGlu].[gGlu].[gGlu].[Sar].[Sar].[Sar].[Sar].[Sar].[Sar].[Sar].[Sar].[Sar].[Sar].[Sar].[Sar].[O=C(CN1CCN(CCN[*:1])CC1)[*:2]].Y.F.[meL].[Nle].[Orn].[meA].R.G.[am]}$$$$V2.0; SMILES CCCC[C@H](NC(=O)[C@H](CC(C)C)N(C)C(=O)[C@H](Cc1ccccc1)NC(=O)[C@H](Cc1ccc(O)cc1)NC(=O)CN1CCN(CCNC(=O)CN(C)C(=O)CN(C)C(=O)CN(C)C(=O)CN(C)C(=O)CN(C)C(=O)CN(C)C(=O)CN(C)C(=O)CN(C)C(=O)CN(C)C(=O)CN(C)C(=O)CN(C)C(=O)CN(C)C(=O)CC[C@H](NC(=O)CC[C@H](NC(=O)CC[C@H](NC(=O)CC[C@H](NC(=O)CCCCCCCCCCCCCCCCCCC(=O)O)C(=O)O)C(=O)O)C(=O)O)C(=O)O)CC1)C(=O)N[C@@H](CCCN)C(=O)N(C)[C@@H](C)C(=O)N[C@@H](CCCNC(=N)N)C(=O)NCC(N)=O) [C20DA-gGlu4-Sar12-AEPipAc-Tyr-Phe-NMeLeu-Nle-Orn-NMeAla-Arg-Gly-NH2]
